Assay results taken from article PMC3868223 (Cytokine, 2013).

Target: T1, IFN-γR1 (ligand-binding chain of the interferon-gamma receptor), fused to a fluorescent protein (UniProt P15260 18-489)
T1 sequence (looked up): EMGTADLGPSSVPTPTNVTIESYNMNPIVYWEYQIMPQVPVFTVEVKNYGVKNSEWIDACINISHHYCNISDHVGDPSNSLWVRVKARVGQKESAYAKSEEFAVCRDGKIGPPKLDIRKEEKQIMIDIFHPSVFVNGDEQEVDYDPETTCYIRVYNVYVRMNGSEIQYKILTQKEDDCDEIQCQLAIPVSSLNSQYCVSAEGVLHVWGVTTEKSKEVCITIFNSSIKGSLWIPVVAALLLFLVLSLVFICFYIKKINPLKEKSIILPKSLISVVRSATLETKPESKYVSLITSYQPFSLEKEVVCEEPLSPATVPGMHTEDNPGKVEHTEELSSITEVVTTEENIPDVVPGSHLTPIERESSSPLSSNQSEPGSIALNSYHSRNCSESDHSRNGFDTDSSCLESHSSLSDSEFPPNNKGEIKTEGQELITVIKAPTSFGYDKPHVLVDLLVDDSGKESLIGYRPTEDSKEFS
Experiment: FRET or BRET

- fold higher apparent affinity than IFN-γR1 with DAF-ToFP: ~7 fold
B1: IFN-γR2 (accessory chain of the interferon-gamma receptor), fused to a fluorescent protein (receptor, UniProt P38484 22-337, looked up)
chain: APPDPLSQLPAPQHPKIRLYNAEQVLSWEPVALSNSTRPVVYQVQFKYTDSKWFTADIMSIGVNCTQITATECDFTAASPSAGFPMDFNVTLRLRAELGALHSAWVTMPWFQHYRNVTVGPPENIEVTPGEGSLIIRFSSPFDIADTSTAFFCYYVHYWEKGGIQQVKGPFRSNSISLDNLKPSRVYCLQVQAQLLWNKSNIFRVGHLSNISCYETMADASTELQQVILISVGTFSLLSVLAGACFFLVLKYRGLIKYWFHTPPSIPLQIEEYLKDPTQPILEALDKDSSPKDDVWDSVSIISFPEKEQEDVLQTL
